From patent US20050085418A1 (CELLTECH R AND D, published 2005)
Blank lines part the entries; values can stand above or below the molecule they belong to.

B1: purified human sclerostin-FLAG® fusion protein (other, UniProt Q9BQB4 24-213, looked up)
chain: QGWQAFKNDATEIIPELGEYPEPPPELENNKTMNRAENGGRPPHHPFETKDVSEYSCRELHFTRYVTDGPCRSAKPVTELVCSGQCGPARLLPNAIGRGKWWRPSGPDFRCIPDRYRAQRVQLLCPGGEAPRARKVRLVASCKCKRLTRFHNQSELKDFGTEAARPQKGRKPRPRARSAKANQAELENAY
notes: Immobilised on CM5 chips (200 and 400 RU) or on anti-FLAG M2 agarose beads; also called FLAG®-Beer; FLAG®-tagged sclerostin; not shown: FLAG tag

What was measured:
[1] = molecular target: purified human sclerostin-FLAG® fusion protein (human) (UniProt Q9BQB4); assay: SPR (Biacore), immobilised sclerostin
Noggin-Fc fusion protein [2] = molecular target: T1, Noggin-Fc fusion protein (murine, UniProt P97466 28-232, limits assumed); assay: SPR, chip-immobilised recombinant human sclerostin, graded concentrations of recombinant murine noggin (FIG. 2B)
T1 construct: also called recombinant murine noggin; not shown: Fc portion, captured and detected with anti-human Fc antibodies
T1 sequence (looked up): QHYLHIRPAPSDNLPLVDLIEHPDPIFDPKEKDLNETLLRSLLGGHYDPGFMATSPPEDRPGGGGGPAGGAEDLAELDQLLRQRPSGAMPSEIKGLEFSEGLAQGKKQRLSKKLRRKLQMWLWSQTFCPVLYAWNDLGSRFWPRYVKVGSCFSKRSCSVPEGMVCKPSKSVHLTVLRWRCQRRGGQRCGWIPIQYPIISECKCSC
Procedure: (§1) The running buffer for Biacore analysis was HBS-EP CMD (10 mM HEPES, 150 mM NaCl, 3 mM EDTA, 0.005% polysorbate 20, and 1 mg/ml carboxyl-methyl dextran). […] The data was processed using the Bia-evaluation software by first correcting for background binding in a non-functionalized flow cell and analyzing the resulting binding curves for on/off rates.

[3] = molecular target: T2, recombinant murine chordin (murine, UniProt Q9Z0E2 27-948, limits assumed); assay: SPR, chip-immobilised recombinant human sclerostin, graded concentrations of recombinant murine chordin (FIG. 2A)
T2 sequence (looked up): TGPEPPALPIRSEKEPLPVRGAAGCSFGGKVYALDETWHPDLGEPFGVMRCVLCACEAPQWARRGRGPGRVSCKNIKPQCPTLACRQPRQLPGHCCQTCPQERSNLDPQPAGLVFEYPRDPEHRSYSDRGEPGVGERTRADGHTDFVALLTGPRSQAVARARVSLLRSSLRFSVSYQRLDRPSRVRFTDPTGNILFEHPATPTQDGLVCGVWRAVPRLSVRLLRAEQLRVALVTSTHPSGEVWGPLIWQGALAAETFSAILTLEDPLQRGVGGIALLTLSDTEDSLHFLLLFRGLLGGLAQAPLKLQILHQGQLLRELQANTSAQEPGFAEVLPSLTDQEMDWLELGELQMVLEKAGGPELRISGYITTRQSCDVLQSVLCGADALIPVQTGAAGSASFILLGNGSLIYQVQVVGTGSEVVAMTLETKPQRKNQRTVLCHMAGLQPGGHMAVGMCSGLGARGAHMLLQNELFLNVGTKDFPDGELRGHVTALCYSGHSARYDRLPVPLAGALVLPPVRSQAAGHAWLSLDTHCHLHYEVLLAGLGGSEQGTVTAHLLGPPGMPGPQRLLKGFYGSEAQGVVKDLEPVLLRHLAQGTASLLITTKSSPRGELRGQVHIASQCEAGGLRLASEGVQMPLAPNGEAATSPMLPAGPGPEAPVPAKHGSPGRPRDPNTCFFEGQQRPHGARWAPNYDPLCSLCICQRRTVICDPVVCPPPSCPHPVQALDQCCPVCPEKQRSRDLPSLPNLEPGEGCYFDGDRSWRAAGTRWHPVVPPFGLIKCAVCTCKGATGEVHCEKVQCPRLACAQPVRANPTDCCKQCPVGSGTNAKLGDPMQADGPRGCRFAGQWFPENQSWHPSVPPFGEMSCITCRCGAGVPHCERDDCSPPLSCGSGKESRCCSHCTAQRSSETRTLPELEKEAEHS
Procedure: as §1

[4] = molecular target: T2, recombinant murine chordin; assay: SPR (Biacore), human sclerostin immobilised on the chip, rmChordin injected at 0.62 to 10 ug/ml [box under the left panel]
Noggin-Fc fusion protein [5] = molecular target: T1, Noggin-Fc fusion protein; assay: SPR (Biacore), human sclerostin immobilised on the chip, rmNoggin injected at 0.31 to 10 ug/ml [box under the right panel]
[6] = molecular target: B1; assay: SPR (Biacore), immobilised sclerostin
Procedure: The running buffer for Biacore analysis was HBS-EP CMD (10 mM HEPES, 150 mM NaCl, 3 mM EDTA, 0.005 % polysorbate 20, and 1 mg/ml carboxyl-methyl dextran). […] BMP proteins were diluted in running buffer and injected over the sensor chip using the Biacore 3000 instrumentation. The data was processed using the Bia-evaluation software (Biacore) by first correcting for background binding in a non-functionalized flow cell and analyzing the resulting binding curves for on/off rates.

Molecule: BMP-5 (ligand)
Kd [1]: < 15 nM

Molecule: B1
Kd (Noggin-Fc fusion protein [2]): 2.92 nM
Kd [3]: 1.76 nM
koff [4]: 0.00209 s⁻¹
kon [4]: 1.18e+06 M⁻¹ s⁻¹
koff (Noggin-Fc fusion protein [5]): 0.00435 s⁻¹
kon (Noggin-Fc fusion protein [5]): 1.46e+06 M⁻¹ s⁻¹

Other lines, results leading:

Kd [1]: < 15 nM
Molecule: BMP-4 (ligand)

Kd [1]: < 15 nM
Molecule: BMP-7 (ligand)

Kd [6]: < 10 nM
B2: BMP-2 (ligand)
chain: QAKHKQRKRLKSSCKRHPLYVDFSDVGWNDWIVAPPGYHAFYCHGECPFPLADHLNSTNHAIVQTLVNSVNSKIPKACCVPTELSAISMLYLDENEKVVLKNYQDMVVEGCGCR
modifications: Disulfide-linked homodimer; one copy of the mature chain is given.
notes: Bought recombinant protein; also called recombinant BMP protein (R&D Systems)
